B1: peptide HD2 (from tick evasin EVA4) / CCL4 (biotinylated, synthetic) (parent complex)
chain 1: EEDDYTAYAPLTCYFT
chain 2: APMGSDPPTACCFSYTARKLPRNFVVDYYETSSLCSQPAVVFQTKRSKQVCADPSESWVQEYVYDLELN

Variants of: B1

Going from chain 1 EEDDYTRYAPLTCYFT [chain 1 A7R] to chain 1 EEDDYTDYAPLTCYFT [chain 1 A7D], the enrichment rises from 0.829 log2 (difference from the parental peptide) to 1.81 log2 (difference from the parental peptide).

First: chain 1 EEDDYTFYAPLTCYFT [chain 1 A7F]
Second: chain 1 EEDDYTQYAPLTCYFT [chain 1 A7Q]
The enrichment of the first is lower: -2.35 log2 (difference from the parental peptide) for the first, 2.27 log2 (difference from the parental peptide) for the second.

First: chain 1 EEDDYTSYAPLTCYFT [chain 1 A7S]
Second: chain 1 EEDDYTHYAPLTCYFT [chain 1 A7H]
The enrichment of the first is higher: 1.01 log2 (difference from the parental peptide) for the first, -0.536 log2 (difference from the parental peptide) for the second.

Compared with chain 1 EEDDYTCYAPLTCYFT [chain 1 A7C], chain 1 EEDDYTAYAPRTCYFT [chain 1 L11R] is higher in enrichment: -7.41 log2 (difference from the parental peptide) for the first, 1.19 log2 (difference from the parental peptide) for the second.

First: chain 1 EEDDYTAYAPKTCYFT [chain 1 L11K]
Second: chain 1 EEDDYTAYAPATCYFT [chain 1 L11A]
The enrichment of the first is higher: 1.88 log2 (difference from the parental peptide) for the first, 0.289 log2 (difference from the parental peptide) for the second.

First: chain 1 EEDDYTAYAPCTCYFT [chain 1 L11C]
Second: chain 1 EEDDYTAYAPWTCYFT [chain 1 L11W]
The enrichment of the first is higher: 0.222 log2 (difference from the parental peptide) for the first, -0.0529 log2 (difference from the parental peptide) for the second.

Going from chain 1 EEDDYTAYAPDTCYFT [chain 1 L11D] to chain 1 EEDDYTAYAPLTWYFT [chain 1 C13W], the enrichment rises from -7.07 log2 (difference from the parental peptide) to -6.63 log2 (difference from the parental peptide).

Compared with chain 1 EEDDYTAYAPLTFYFT [chain 1 C13F], chain 1 EEDDYTAYAPLTNYFT [chain 1 C13N] is higher in enrichment: -8.2 log2 (difference from the parental peptide) for the first, -7.77 log2 (difference from the parental peptide) for the second.

Compared with chain 1 EEDDYTAYAPLTGYFT [chain 1 C13G], chain 1 EEDDYTAYAPLTIYFT [chain 1 C13I] is higher in enrichment: -9 log2 (difference from the parental peptide) for the first, -3.66 log2 (difference from the parental peptide) for the second.

Compared with chain 1 EEDDYTAYAPLTAYFT [chain 1 C13A], chain 1 EEDDYTAYAPLTDYFT [chain 1 C13D] is lower in enrichment: -7.87 log2 (difference from the parental peptide) for the first, -8.73 log2 (difference from the parental peptide) for the second.

Compared with chain 1 EEDDYTAYAPLTSYFT [chain 1 C13S], chain 1 EEQDYTAYAPLTCYFT [chain 1 D3Q] is higher in enrichment: -4.84 log2 (difference from the parental peptide) for the first, -3.56 log2 (difference from the parental peptide) for the second.

First: chain 1 EESDYTAYAPLTCYFT [chain 1 D3S]
Second: chain 1 EEGDYTAYAPLTCYFT [chain 1 D3G]
The enrichment of the first is higher: -2.37 log2 (difference from the parental peptide) for the first, -2.44 log2 (difference from the parental peptide) for the second.

Compared with chain 1 EEIDYTAYAPLTCYFT [chain 1 D3I], chain 1 EEEDYTAYAPLTCYFT [chain 1 D3E] is higher in enrichment: -3.64 log2 (difference from the parental peptide) for the first, 1.01 log2 (difference from the parental peptide) for the second.

Going from chain 1 EERDYTAYAPLTCYFT [chain 1 D3R] to chain 1 EENDYTAYAPLTCYFT [chain 1 D3N], the enrichment rises from -4.7 log2 (difference from the parental peptide) to -2.11 log2 (difference from the parental peptide).

Going from chain 1 EEWDYTAYAPLTCYFT [chain 1 D3W] to chain 1 EEDDMTAYAPLTCYFT [chain 1 Y5M], the enrichment falls from -2.32 log2 (difference from the parental peptide) to -3.3 log2 (difference from the parental peptide).

Compared with chain 1 EEDDITAYAPLTCYFT [chain 1 Y5I], chain 1 EEDDWTAYAPLTCYFT [chain 1 Y5W] is higher in enrichment: -5.08 log2 (difference from the parental peptide) for the first, 1.96 log2 (difference from the parental peptide) for the second.

Compared with chain 1 EEDDHTAYAPLTCYFT [chain 1 Y5H], chain 1 EEDGYTAYAPLTCYFT [chain 1 D4G] is higher in enrichment: -5.89 log2 (difference from the parental peptide) for the first, -4.2 log2 (difference from the parental peptide) for the second.

Compared with chain 1 EEDHYTAYAPLTCYFT [chain 1 D4H], chain 1 EEDWYTAYAPLTCYFT [chain 1 D4W] is higher in enrichment: -5.75 log2 (difference from the parental peptide) for the first, -2.51 log2 (difference from the parental peptide) for the second.

Going from chain 1 EEDMYTAYAPLTCYFT [chain 1 D4M] to chain 1 EEDTYTAYAPLTCYFT [chain 1 D4T], the enrichment falls from -3.8 log2 (difference from the parental peptide) to -4.12 log2 (difference from the parental peptide).

Compared with chain 1 EEDQYTAYAPLTCYFT [chain 1 D4Q], chain 1 EEDFYTAYAPLTCYFT [chain 1 D4F] is lower in enrichment: -3.05 log2 (difference from the parental peptide) for the first, -3.98 log2 (difference from the parental peptide) for the second.

Compared with chain 1 ERDDYTAYAPLTCYFT [chain 1 E2R], chain 1 EQDDYTAYAPLTCYFT [chain 1 E2Q] is higher in enrichment: -4.37 log2 (difference from the parental peptide) for the first, -1.88 log2 (difference from the parental peptide) for the second.

Compared with chain 1 EHDDYTAYAPLTCYFT [chain 1 E2H], chain 1 EPDDYTAYAPLTCYFT [chain 1 E2P] is lower in enrichment: -2.04 log2 (difference from the parental peptide) for the first, -3.03 log2 (difference from the parental peptide) for the second.

Compared with chain 1 EWDDYTAYAPLTCYFT [chain 1 E2W], chain 1 EEDDYTAYAPLTCYCT [chain 1 F15C] is lower in enrichment: -1.18 log2 (difference from the parental peptide) for the first, -4.83 log2 (difference from the parental peptide) for the second.

Going from chain 1 EEDDYTAYAPLTCYVT [chain 1 F15V] to chain 1 EEDDYTAYAPLTCYST [chain 1 F15S], the enrichment falls from 1.4 log2 (difference from the parental peptide) to -0.0882 log2 (difference from the parental peptide).

Compared with chain 1 EEDDYTAYAPLTCYWT [chain 1 F15W], chain 1 EEDDYTAYAPLTCYIT [chain 1 F15I] is higher in enrichment: -1.58 log2 (difference from the parental peptide) for the first, 0.969 log2 (difference from the parental peptide) for the second.

Compared with chain 1 EEDDYTAYAPLTCYKT [chain 1 F15K], chain 1 EEDDYTAYAPLTCYDT [chain 1 F15D] is lower in enrichment: 0.923 log2 (difference from the parental peptide) for the first, -2.26 log2 (difference from the parental peptide) for the second.

Going from chain 1 EEDDYTAYAPLTCYAT [chain 1 F15A] to chain 1 EEDDYTAYAPLTCMFT [chain 1 Y14M], the enrichment falls from 1.49 log2 (difference from the parental peptide) to -2.24 log2 (difference from the parental peptide).

Compared with chain 1 EEDDYTAYAPLTCCFT [chain 1 Y14C], chain 1 EEDDYTAYAPLTCVFT [chain 1 Y14V] is higher in enrichment: -4.56 log2 (difference from the parental peptide) for the first, -1.84 log2 (difference from the parental peptide) for the second.

Compared with chain 1 EEDDYTAYAPLTCLFT [chain 1 Y14L], chain 1 EEDDYTAYAPLTCHFT [chain 1 Y14H] is higher in enrichment: -2.84 log2 (difference from the parental peptide) for the first, -0.0476 log2 (difference from the parental peptide) for the second.

Compared with chain 1 EEDDYTAYAPLTCFFT [chain 1 Y14F], chain 1 EEDDYTAYAPLTCWFT [chain 1 Y14W] is lower in enrichment: 0.581 log2 (difference from the parental peptide) for the first, -0.462 log2 (difference from the parental peptide) for the second.

First: chain 1 EEDDYTAYAPLTCKFT [chain 1 Y14K]
Second: chain 1 EEDDYTAYAPLTCYFI [chain 1 T16I]
The enrichment of the first is lower: -5.73 log2 (difference from the parental peptide) for the first, -0.308 log2 (difference from the parental peptide) for the second.

Going from chain 1 EEDDYTAYAPLTCYFS [chain 1 T16S] to chain 1 EEDDYTAYAPLTCYFG [chain 1 T16G], the enrichment rises from 1.17 log2 (difference from the parental peptide) to 1.59 log2 (difference from the parental peptide).

Going from chain 1 EEDDYTAYAPLTCYFV [chain 1 T16V] to chain 1 EEDDYTAYAPLTCYFN [chain 1 T16N], the enrichment rises from -0.281 log2 (difference from the parental peptide) to 0.632 log2 (difference from the parental peptide).

Going from chain 1 EEDDYTAPAPLTCYFT [chain 1 Y8P] to chain 1 EEDDYTAVAPLTCYFT [chain 1 Y8V], the enrichment falls from -0.864 log2 (difference from the parental peptide) to -2.68 log2 (difference from the parental peptide).

Compared with chain 1 EEDDYTANAPLTCYFT [chain 1 Y8N], chain 1 EEDDYTADAPLTCYFT [chain 1 Y8D] is higher in enrichment: -2.94 log2 (difference from the parental peptide) for the first, -2.3 log2 (difference from the parental peptide) for the second.

Compared with chain 1 EEDDYTAYAPLSCYFT [chain 1 T12S], chain 1 EEDDYTAYAPLCCYFT [chain 1 T12C] is lower in enrichment: 0.347 log2 (difference from the parental peptide) for the first, -4.88 log2 (difference from the parental peptide) for the second.

Compared with chain 1 EEDDYTAYAPLQCYFT [chain 1 T12Q], chain 1 EEDDYTAYAPLRCYFT [chain 1 T12R] is lower in enrichment: 1 log2 (difference from the parental peptide) for the first, -1.17 log2 (difference from the parental peptide) for the second.

First: chain 1 EEDDYTAYAPLFCYFT [chain 1 T12F]
Second: chain 1 EEDDYTAYAPLKCYFT [chain 1 T12K]
The enrichment of the first is higher: 2.42 log2 (difference from the parental peptide) for the first, -2.25 log2 (difference from the parental peptide) for the second.

Compared with chain 1 EEDDYTAYAPLMCYFT [chain 1 T12M], chain 1 EEDDYTAYAPLPCYFT [chain 1 T12P] is lower in enrichment: 2.93 log2 (difference from the parental peptide) for the first, 0.2 log2 (difference from the parental peptide) for the second.

First: chain 1 EEDDYTAYAPLGCYFT [chain 1 T12G]
Second: chain 1 EEDDYTAYAPLLCYFT [chain 1 T12L]
The enrichment of the first is lower: -4.11 log2 (difference from the parental peptide) for the first, 3.18 log2 (difference from the parental peptide) for the second.

Going from chain 1 EEDDYTAYGPLTCYFT [chain 1 A9G] to chain 1 EEDDYTAYQPLTCYFT [chain 1 A9Q], the enrichment rises from -5.26 log2 (difference from the parental peptide) to -0.79 log2 (difference from the parental peptide).

First: chain 1 EEDDYTAYFPLTCYFT [chain 1 A9F]
Second: chain 1 EEDDYTAYMPLTCYFT [chain 1 A9M]
The enrichment of the first is lower: -6.63 log2 (difference from the parental peptide) for the first, -3.9 log2 (difference from the parental peptide) for the second.

Going from chain 1 EEDDYTAYYPLTCYFT [chain 1 A9Y] to chain 1 EEDDYTAYVPLTCYFT [chain 1 A9V], the enrichment falls from -5.65 log2 (difference from the parental peptide) to -8.22 log2 (difference from the parental peptide).

Going from chain 1 EEDDYVAYAPLTCYFT [chain 1 T6V] to chain 1 EEDDYKAYAPLTCYFT [chain 1 T6K], the enrichment rises from -3.51 log2 (difference from the parental peptide) to -1.03 log2 (difference from the parental peptide).

First: chain 1 EEDDYYAYAPLTCYFT [chain 1 T6Y]
Second: chain 1 EEDDYMAYAPLTCYFT [chain 1 T6M]
The enrichment of the first is lower: -1.54 log2 (difference from the parental peptide) for the first, -1.2 log2 (difference from the parental peptide) for the second.

Compared with chain 1 EEDDYAAYAPLTCYFT [chain 1 T6A], chain 1 EEDDYFAYAPLTCYFT [chain 1 T6F] is lower in enrichment: 1.9 log2 (difference from the parental peptide) for the first, -4.46 log2 (difference from the parental peptide) for the second.

First: chain 1 EEDDYLAYAPLTCYFT [chain 1 T6L]
Second: chain 1 EEDDYHAYAPLTCYFT [chain 1 T6H]
The enrichment of the first is lower: -2.59 log2 (difference from the parental peptide) for the first, -0.386 log2 (difference from the parental peptide) for the second.

Compared with chain 1 EEDDYEAYAPLTCYFT [chain 1 T6E], chain 1 EEDDYTAYACLTCYFT [chain 1 P10C] is lower in enrichment: 2.94 log2 (difference from the parental peptide) for the first, -7.71 log2 (difference from the parental peptide) for the second.

Going from chain 1 EEDDYTAYAYLTCYFT [chain 1 P10Y] to chain 1 EEDDYTAYASLTCYFT [chain 1 P10S], the enrichment falls from -7.13 log2 (difference from the parental peptide) to -7.76 log2 (difference from the parental peptide).

Going from chain 1 EEDDYTAYAALTCYFT [chain 1 P10A] to chain 1 EEDDYTAYAELTCYFT [chain 1 P10E], the enrichment rises from -7.28 log2 (difference from the parental peptide) to -4.88 log2 (difference from the parental peptide).

Going from chain 1 MEDDYTAYAPLTCYFT [chain 1 E1M] to chain 1 NEDDYTAYAPLTCYFT [chain 1 E1N], the enrichment falls from -0.205 log2 (difference from the parental peptide) to -0.413 log2 (difference from the parental peptide).

First: chain 1 KEDDYTAYAPLTCYFT [chain 1 E1K]
Second: chain 1 WEDDYTAYAPLTCYFT [chain 1 E1W]
The enrichment of the first is higher: -2.64 log2 (difference from the parental peptide) for the first, -3.15 log2 (difference from the parental peptide) for the second.

Going from chain 1 HEDDYTAYAPLTCYFT [chain 1 E1H] to chain 1 FEDDYTAYAPLTCYFT [chain 1 E1F], the enrichment falls from -1.57 log2 (difference from the parental peptide) to -2.68 log2 (difference from the parental peptide).

First: chain 1 DEDDYTAYAPLTCYFT [chain 1 E1D]
Second: chain 1 SEDDYTAYAPLTCYFT [chain 1 E1S]
The enrichment of the first is higher: 1.99 log2 (difference from the parental peptide) for the first, -0.537 log2 (difference from the parental peptide) for the second.

Going from chain 1 GEDDYTAYAPLTCYFT [chain 1 E1G] to chain 1 REDDYTAYAPLTCYFT [chain 1 E1R], the enrichment falls from -0.0396 log2 (difference from the parental peptide) to -3.09 log2 (difference from the parental peptide).

Compared with chain 1 VEDDYTAYAPLTCYFT [chain 1 E1V], chain 1 IEDDYTAYAPLTCYFT [chain 1 E1I] is higher in enrichment: -1.21 log2 (difference from the parental peptide) for the first, -0.889 log2 (difference from the parental peptide) for the second.
